This is an account of results in article PMC2806950.

The target of this assay is T1, Ocr (overcome classical restriction) protein of bacteriophage T7, unmodified (bacteriophage T7), P03775.
T1 chain: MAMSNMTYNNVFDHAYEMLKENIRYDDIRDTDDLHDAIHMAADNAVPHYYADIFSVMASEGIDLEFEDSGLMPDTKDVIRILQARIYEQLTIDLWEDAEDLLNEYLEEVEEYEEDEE
The assay can be described thus: native gel or EMSA; blue native PAGE (NativePAGE Novex 4-16% Bis-Tris) of unmodified Ocr; also native 15% PAGE, non-denaturing reducing conditions. The note with it: remark: other sources report otherwise.

B1: Ocr (overcome classical restriction) protein of bacteriophage T7, unmodified, P03775 1-117 (natural protein)
chain: MAMSNMTYNNVFDHAYEMLKENIRYDDIRDTDDLHDAIHMAADNAVPHYYADIFSVMASEGIDLEFEDSGLMPDTKDVIRILQARIYEQLTIDLWEDAEDLLNEYLEEVEEYEEDEE
The molecule B1 had a stoichiometry N of 4.
